# According to PMC7729979, “A protein of the metallo-hydrolase/oxidoreductase superfamily with both beta-lactamase and ribonuclease activity is linked with translation in giant viruses” (Scientific Reports, 2020):
# How the values were obtained:
# [1] = target: TupBlac (Tupanvirus deep ocean MBL fold protein AUL78925.1) (Tupanvirus deep ocean, UniProt A0AC62AAK8); assay: LC-MS of penicillin G hydrolysis and benzylpenilloic acid formation; type: biochemical; conditions: sulbactam 10 µg/mL, penicillin G 10 µg/mL, room temperature, up to 48 h; inhibition qualitative, mechanism not determined
# [2] = tested on: O=C(Cc1cccs1)N[C@@H]1C(=O)N2C(C(=O)O)=C(/C=C/c3ccc([N+](=O)[O-])cc3[N+](=O)[O-])CS[C@H]12; assay: purified protein; conditions: PBS pH 7.4, promiscuous beta-lactamase activity
Compound,LC-MS of penicillin G hydrolysis and benzylpenilloic acid formation [1],Km [2],kcat [2]
CC1(C)[C@H](C(=O)O)N2C(=O)C[C@H]2S1(=O)=O [sulbactam],both penicillin G degradation and benzylpenilloic acid appearance were inhibited by sulbactam,–,–
TupBlac (Tupanvirus deep ocean MBL fold protein AUL78925.1) (Tupanvirus deep ocean),–,160 ± 5 µM,8.8 × 10^–4 ± 8.5 × 10^–5 s^−1
